Reference: patent US20250043028A1 (Hoffmann-La Roche, published 2025)

What was measured:
[1] = target: T1, human MCSP expressed on tumor cells (Colo-38, WM266-4, MV-3) (human, UniProt Q6UVK1 30-2322); test: flow cytometry on WM266-4 cells
T1 construct: whole, on cells; also called huMCSP; Melanoma-associated Chondroitin Sulfate Proteoglycan

[2] = target: T1, human MCSP expressed on tumor cells …; test: cell-based or functional assay
[3] = target: T2, human CD3 expressed on Jurkat cells (human, UniProt P07766 23-207); test: flow cytometry on Jurkat cells
T2 construct: CD3 as part of the T cell receptor complex on Jurkat cells; also called huCD3; human CD3 on cells

[4] = target: T1, human MCSP expressed on tumor cells …; test: cell-based or functional assay; remark: listed apart in the source

T1 sequence (Q6UVK1 30-2322): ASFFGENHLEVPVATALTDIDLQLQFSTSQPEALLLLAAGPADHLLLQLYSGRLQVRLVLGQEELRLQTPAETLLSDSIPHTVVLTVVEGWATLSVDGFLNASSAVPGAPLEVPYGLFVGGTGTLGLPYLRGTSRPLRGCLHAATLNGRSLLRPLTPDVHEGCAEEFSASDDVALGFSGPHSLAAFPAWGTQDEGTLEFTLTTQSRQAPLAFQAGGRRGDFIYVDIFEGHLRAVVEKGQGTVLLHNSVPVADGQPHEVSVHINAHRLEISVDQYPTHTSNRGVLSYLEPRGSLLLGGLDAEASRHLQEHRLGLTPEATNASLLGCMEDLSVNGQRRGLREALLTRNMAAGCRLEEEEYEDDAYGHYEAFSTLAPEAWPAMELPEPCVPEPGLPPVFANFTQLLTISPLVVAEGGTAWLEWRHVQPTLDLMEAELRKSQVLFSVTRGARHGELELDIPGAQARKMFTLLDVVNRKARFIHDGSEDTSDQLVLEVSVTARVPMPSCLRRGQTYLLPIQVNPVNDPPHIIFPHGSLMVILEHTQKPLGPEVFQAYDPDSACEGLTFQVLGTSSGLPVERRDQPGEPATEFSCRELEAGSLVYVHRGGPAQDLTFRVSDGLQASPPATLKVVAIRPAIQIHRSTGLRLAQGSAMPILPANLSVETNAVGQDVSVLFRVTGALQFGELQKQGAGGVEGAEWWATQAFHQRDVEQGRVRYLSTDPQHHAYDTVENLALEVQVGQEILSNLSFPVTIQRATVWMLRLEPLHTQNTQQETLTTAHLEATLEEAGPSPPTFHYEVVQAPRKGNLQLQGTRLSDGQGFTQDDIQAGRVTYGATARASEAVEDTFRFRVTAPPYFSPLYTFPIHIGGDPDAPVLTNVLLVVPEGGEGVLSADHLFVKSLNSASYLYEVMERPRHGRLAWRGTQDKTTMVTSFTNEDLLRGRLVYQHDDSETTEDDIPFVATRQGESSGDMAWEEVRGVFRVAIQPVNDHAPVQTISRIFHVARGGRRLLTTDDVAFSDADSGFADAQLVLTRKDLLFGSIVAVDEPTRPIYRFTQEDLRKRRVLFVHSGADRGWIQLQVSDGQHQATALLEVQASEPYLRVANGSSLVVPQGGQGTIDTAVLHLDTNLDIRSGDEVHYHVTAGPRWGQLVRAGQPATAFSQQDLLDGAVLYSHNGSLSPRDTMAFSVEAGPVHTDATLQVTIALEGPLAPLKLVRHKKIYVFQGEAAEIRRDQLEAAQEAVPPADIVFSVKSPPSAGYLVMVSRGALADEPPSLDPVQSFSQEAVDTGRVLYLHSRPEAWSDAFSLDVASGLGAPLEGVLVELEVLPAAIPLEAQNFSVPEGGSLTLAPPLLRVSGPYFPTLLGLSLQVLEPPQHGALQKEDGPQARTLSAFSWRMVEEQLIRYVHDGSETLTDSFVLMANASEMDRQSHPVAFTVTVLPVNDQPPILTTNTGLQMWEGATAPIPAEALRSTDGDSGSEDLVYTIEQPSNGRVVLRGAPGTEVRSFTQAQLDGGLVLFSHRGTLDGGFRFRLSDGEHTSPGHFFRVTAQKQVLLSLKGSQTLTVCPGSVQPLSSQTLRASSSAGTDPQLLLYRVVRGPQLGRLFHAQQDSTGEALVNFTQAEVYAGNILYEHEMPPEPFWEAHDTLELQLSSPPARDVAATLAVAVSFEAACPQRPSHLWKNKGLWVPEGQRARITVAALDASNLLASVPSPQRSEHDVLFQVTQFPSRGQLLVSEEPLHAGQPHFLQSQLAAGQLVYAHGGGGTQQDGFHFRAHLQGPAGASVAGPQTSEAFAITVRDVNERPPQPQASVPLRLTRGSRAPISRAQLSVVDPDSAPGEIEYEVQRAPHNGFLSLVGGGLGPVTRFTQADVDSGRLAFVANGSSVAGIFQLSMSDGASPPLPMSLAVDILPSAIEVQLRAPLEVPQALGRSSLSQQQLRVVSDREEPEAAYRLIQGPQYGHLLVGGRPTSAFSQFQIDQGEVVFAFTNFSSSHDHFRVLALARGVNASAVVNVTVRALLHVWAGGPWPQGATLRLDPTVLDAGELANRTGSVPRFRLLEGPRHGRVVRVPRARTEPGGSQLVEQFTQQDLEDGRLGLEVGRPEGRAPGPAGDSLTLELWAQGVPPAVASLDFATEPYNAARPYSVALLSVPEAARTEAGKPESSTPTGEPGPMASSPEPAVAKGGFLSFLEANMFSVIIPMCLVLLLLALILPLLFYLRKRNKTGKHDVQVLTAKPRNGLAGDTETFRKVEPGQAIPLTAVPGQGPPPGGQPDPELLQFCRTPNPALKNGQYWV
T2 sequence (P07766 23-207 limits assumed): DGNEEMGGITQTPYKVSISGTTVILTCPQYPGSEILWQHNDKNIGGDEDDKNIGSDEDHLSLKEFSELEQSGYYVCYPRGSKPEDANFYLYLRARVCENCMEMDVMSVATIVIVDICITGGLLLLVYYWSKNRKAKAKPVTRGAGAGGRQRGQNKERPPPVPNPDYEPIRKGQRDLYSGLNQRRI

B1: “2+1 IgG Crossfab”; VH/VL exchange (LC007/V9) (anti-MCSP/anti-huCD3) (bispecific antibody)
chain 1: not shown
chain 2: DIVLTQSPSSLSASLGDRVTISCSASQGIRNYLNWYQQRPDGTVKLLIYYTSSLHSGVPSRFSGSGSGTDYSLTISNLEPEDIATYYCQQYSKLPWTFGGGTKLEIKRTVAAPSVFIFPPSDEQLKSGTASVVCLLNNFYPREAKVQWKVDNALQSGNSQESVTEQDSKDSTYSLSSTLTLSKADYEKHKVYACEVTHQGLSSPVTKSFNRGEC
chain 3: DIQMTQSPSSLSASVGDRVTITCRASQDIRNYLNWYQQKPGKAPKLLIYYTSRLESGVPSRFSGSGSGTDYTLTISSLQPEDFATYYCQQGNTLPWTFGQGTKVEIKSSASTKGPSVFPLAPSSKSTSGGTAALGCLVKDYFPEPVTVSWNSGALTSGVHTFPAVLQSSGLYSLSSVVTVPSSSLGTQTYICNVNHKPSNTKVDKKVEPKSCGGGGSGGGGSEVQLQESGPGLVKPSQSLSLTCSVTGYSITSGYYWNWIRQFPGNKLEWMGYITYDGSNNYNPSLKNRISITRDTSKNQFFLKLNSVTTEDTATYYCADFDYWGQGTTLTVSSASTKGPSVFPLAPSSKSTSGGTAALGCLVKDYFPEPVTVSWNSGALTSGVHTFPAVLQSSGLYSLSSVVTVPSSSLGTQTYICNVNHKPSNTKVDKKVEPKSCDKTHTCPPCPAPEAAGGPSVFLFPPKPKDTLMISRTPEVTCVVVDVSHEDPEVKFNWYVDGVEVHNAKTKPREEQYNSTYRVVSVLTVLHQDWLNGKEYKCKVSNKALGAPIEKTISKAKGQPREPQVCTLPPSRDELTKNQVSLSCAVKGFYPSDIAVEWESNGQPENNYKTTPPVLDSDGSFFLVSKLTVDKSRWQQGNVFSCSVMHEALHNHYTQKSLSLSPGK
chain 4: EVQLVESGGGLVQPGGSLRLSCAASGYSFTGYTMNWVRQAPGKGLEWVALINPYKGVSTYNQKFKDRFTISVDKSKNTAYLQMNSLRAEDTAVYYCARSGYYGDSDWYFDVWGQGTLVTVSSASVAAPSVFIFPPSDEQLKSGTASVVCLLNNFYPREAKVQWKVDNALQSGNSQESVTEQDSKDSTYSLSSTLTLSKADYEKHKVYACEVTHQGLSSPVTKSFNRGEC
notes: vectors transfected 1:2:1:1 (second heavy chain : light chain : first heavy chain-heavy chain Crossfab : light chain Crossfab); also called 2+1 IgG Crossfab (V9)
EC50 [1]: 0.95 nM
EC50 [pM] of T cell-mediated killing (LDH release) of MV-3 cells, human PBMCs, E:T 10:1, about 24 h [2]: 10 pM
EC50 [pM] of T cell-mediated killing (LDH release) of WM266-4 cells, human PBMCs, E:T 10:1, about 24 h [2]: 12.4 pM
EC50 [3]: 1.66 nM
EC50 of killing (LDH release) of MV-3 cells, human PBMCs, E:T 10:1, 21 h [4]: 0.0092 nM
EC50 of killing (LDH release) of WM266-4 cells, human PBMCs, E:T 10:1, 21 h [4]: 0.0331 nM
